The text below walks through data of patent US20130336885A1 (Genentech, published 2013).

Experiment [1] deals with T1, gD epitope-tagged mouse LgR5 expressed on stably transfected 293 cells (mouse, UniProt Q9Z1P4 22-907).
T1 construct: also called gD-tagged mouse LgR5
T1 sequence: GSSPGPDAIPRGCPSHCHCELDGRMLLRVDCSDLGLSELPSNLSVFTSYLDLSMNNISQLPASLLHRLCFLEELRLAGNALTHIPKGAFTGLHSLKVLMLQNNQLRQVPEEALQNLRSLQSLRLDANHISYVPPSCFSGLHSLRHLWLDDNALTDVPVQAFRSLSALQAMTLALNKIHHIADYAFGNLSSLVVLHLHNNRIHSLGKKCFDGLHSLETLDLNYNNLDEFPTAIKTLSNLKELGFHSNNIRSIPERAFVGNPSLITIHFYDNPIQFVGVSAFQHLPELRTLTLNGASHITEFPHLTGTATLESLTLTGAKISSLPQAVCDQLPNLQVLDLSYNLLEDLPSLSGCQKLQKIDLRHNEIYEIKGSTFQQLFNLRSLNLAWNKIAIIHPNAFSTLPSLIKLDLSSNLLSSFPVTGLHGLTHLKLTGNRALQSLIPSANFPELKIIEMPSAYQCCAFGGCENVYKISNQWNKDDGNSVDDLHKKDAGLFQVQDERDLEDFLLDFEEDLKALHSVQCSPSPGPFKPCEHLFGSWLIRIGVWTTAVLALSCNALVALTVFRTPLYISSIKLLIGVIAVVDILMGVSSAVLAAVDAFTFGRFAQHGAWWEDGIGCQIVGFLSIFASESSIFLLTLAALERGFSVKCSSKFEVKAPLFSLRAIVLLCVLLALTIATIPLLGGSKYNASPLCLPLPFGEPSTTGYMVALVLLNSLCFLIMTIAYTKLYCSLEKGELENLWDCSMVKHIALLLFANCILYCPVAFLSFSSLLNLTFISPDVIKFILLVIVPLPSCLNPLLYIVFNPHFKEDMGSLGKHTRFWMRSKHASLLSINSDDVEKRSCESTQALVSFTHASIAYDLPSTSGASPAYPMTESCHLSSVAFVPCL
The experiment is described as follows: Scatchard analysis, competition of 125I-labeled with unlabeled antibody on 293 cells stably expressing mouse LgR5. The method, then:
Scatchard analysis was performed following standard procedures (Holmes et al., Science 256:1205-1210 (1992)) to determine the relative binding affinities of YW353, ch8E11 and hu8E11v2 antibodies.
Anti-LgrS antibodies were [I¹²⁵] labeled using the indirect Iodogen method. […] Competition assay mixtures of 50 μL volume containing a fixed concentration of [I¹²⁵] labeled antibody and decreasing concentrations of serially diluted, unlabeled antibody were placed into 96-well plates. 293 cells stably expression human, rat, or mouse LgrS were cultured in growth media at 37° C. in 5% CO₂. Cells were detached from the flask using Sigma Cell Dissociation Solution and were washed with binding buffer, which consisted of Dulbecco's Modified Eagle Medium (DMEM) with 2% fetal bovine serum (FBS), 50 mM HEPES (pH 7.2) and 0.1% sodium azide. The washed cells were added to the 96 well plates at a density of 250,000 cells in 0.2 mL of binding buffer. The final concentration of the labeled antibody in each well was 200 μM. […] The filters were counted on a Wallac Wizard 1470 gamma counter (PerkinElmer Life and Analytical Sciences Inc.; Wellesley, Mass.). The binding data was evaluated using NewLigand software (Genentech), which uses the fitting algorithm of Munson and Robard to determine the binding affinity of the antibody (Munson and Robard 1980)

The target of experiment [2] is T2, gD epitope-tagged rat LgR5 expressed on stably transfected 293 cells (rat, UniProt D4AC13 22-907).
T2 construct: also called gD-tagged rat LgR5
T2 sequence: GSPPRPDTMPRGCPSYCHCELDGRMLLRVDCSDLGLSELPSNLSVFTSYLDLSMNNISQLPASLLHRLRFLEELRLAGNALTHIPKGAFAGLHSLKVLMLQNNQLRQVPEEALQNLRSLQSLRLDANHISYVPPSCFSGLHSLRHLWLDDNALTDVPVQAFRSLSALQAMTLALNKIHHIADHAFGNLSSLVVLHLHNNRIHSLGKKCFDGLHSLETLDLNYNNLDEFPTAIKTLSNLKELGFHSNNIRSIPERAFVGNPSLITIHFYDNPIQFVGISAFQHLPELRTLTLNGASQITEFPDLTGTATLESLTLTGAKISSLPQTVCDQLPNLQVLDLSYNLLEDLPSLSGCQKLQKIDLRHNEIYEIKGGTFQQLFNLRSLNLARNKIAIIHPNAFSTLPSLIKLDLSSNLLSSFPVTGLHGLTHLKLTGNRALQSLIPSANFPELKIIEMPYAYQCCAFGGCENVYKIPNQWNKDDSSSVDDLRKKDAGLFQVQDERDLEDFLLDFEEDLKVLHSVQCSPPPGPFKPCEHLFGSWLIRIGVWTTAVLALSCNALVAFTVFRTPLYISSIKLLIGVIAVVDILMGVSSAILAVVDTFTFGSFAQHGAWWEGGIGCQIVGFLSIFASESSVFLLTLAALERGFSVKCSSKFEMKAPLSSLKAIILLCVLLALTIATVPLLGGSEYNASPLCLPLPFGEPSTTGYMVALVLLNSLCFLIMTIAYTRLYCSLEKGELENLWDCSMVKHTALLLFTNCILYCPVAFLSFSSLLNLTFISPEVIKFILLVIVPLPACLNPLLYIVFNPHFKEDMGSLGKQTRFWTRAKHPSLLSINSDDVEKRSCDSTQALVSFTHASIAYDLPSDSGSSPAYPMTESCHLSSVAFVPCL
The experiment in a line: FACS on stably transfected 293 cells, detected with R-Phycoerythrin goat anti-human antibody. As for the experimental part:
(§1) Monoclonal antibodies were tested to determine if they cross-react with LgR5 from species other than human. […] Residues that are identical among all four species are indicated by asterisks (*). […] YW353 antibody binds human and cynomolgus monkey LgR5, but not rat or mouse LgR5. Ch8E11 and hu8E11.v2 antibodies bind all four species of LgR5, although binding to rat LgR5 is not as strong as binding to human, cynomolgus monkey, or mouse LgR5. 2H6 antibody binds to human and mouse LgR5, and was not tested for binding to cynomolgus monkey or rat LgR5.

In experiment [3] the target is T1, gD epitope-tagged mouse LgR5 expressed …. The experiment is described as above. As for the experimental part:
as §1

B1: humanized monoclonal antibody 8E11.v2 (antibody, human IgG1, kappa, V domains shown)
VH: EVQLVQSGAEVKKPGASVKVSCKASGYTFSAYWIEWVRQAPGQGLEWIGEILPGSDSTDYNEKFKVRATFTSDTSTSTVYLELSSLRSEDTAVYYCARGGHYGSLDYWGQGTLVTVSS
VL: DIVMTQSPDSLAVSLGERATINCRASESVDNYGNSFMHWYQQKPGQPPKLLIYLASNLESGVPDRFSGSGSGTDFTLTISSLQAEDVAVYYCQQNYEDPFTFGQGTKVEIKR
notes: It was assessed as an IgG; also called hu8E11.v2; hu8E11v2
As usually defined, the Kd is the equilibrium constant for the complex coming apart. On to B1, for which, in experiment [1], the equilibrium dissociation constant (Kd) is 0.6 nM.

B2: human antibody YW353 (antibody, human IgG1, kappa, V domains shown)
VH: EVQLVESGGGLVQPGGSLRLSCAASGFTFTSYSISWVRQAPGKGLEWVAEIYPPGGYTDYADSVKGRFTISADTSKNTAYLQMNSLRAEDTAVYYCAKARLFFDYWGQGTLVTVSS
VL: DIQMTQSPSSLSASVGDRVTITCRASQDVSTAVAWYQQKPGKAPKLLIYSASFLYSGVPSRFSGSGSGTDFTLTISSLQPEDFATYYCQQSYTTPPTFGQGTKVEIKR
notes: also called huYW353
For the molecule B2, the binding result in experiment [2] and in experiment [3] was “no binding (tested: 10 µg/ml)” each time.
